Measured values published in patent US20230287068A1, “KERATIN BD-6, PREPARATION METHOD THEREFOR AND PHARMACEUTICAL COMPOSITION AND USE THEREOF” (INSTITUTE OF MATERIAL MEDICA, CHINESE ACADEMY OF MEDICAL …, priority 2019, published 2023).

Columns and labels:
[1] = test system: lipopolysaccharide (LPS) induced fever model in rats; assay: Lipopolysaccharide (LPS) induced fever model in SD rats; type: in vivo; conditions: for Body temperature 2 hours after modeling / Body temperature 4 hours after modeling / Body temperature 6 hours after modeling / Body temperature 8 hours after modeling: LPS 20 µg/kg i.p., SD rats
Method: • Animals: 230-260 grams of male SD rats; • Drugs: lipopolysaccharide (LPS, SIGMAL-2880), aspirin (SIGMAA2093), protein BD-6; • Instruments: electronic balance (SARTORIUS BP121S type), electronic clinical thermometer (CITIZEN CT-513W type). • Experiment grouping: • Normal control group; • Model group: lipopolysaccharide fever model; • Positive control group: Aspirin 300 mg/kg group; • Protein BD-6, 10 mg/kg group, 50 mg/kg group.
Method: the method of intraperitoneal injection of Lipopolysaccharide to replicate rat fever model.
Preparation of experimental animals: After the experimental animals adapt to the experimental environment (temperature 22° C.±2° C., relative humidity 50%±2%) for 1 day. Pre-adaptation to measure rectal temperature at 8:00 and 15:00, rats were fasted and water was taken freely 12 h before experiment, and let the animal to empty its feces before measuring the rectal temperature. Apply petroleum jelly to the electronic thermometer probe before each temperature measurement. Insert the rat rectum 2 cm (can be marked at 2 cm to ensure that the depth of each insertion is consistent), and record the body temperature after the reading is stable.
Intraperitoneal injection of lipopolysaccharide to replicate rat fever model: The body temperature of the rats was measured before modeling. Qualified rats with a body temperature of 36.2-37.3° C. were selected and randomly divided into groups with 8 rats in each group. After oral administration of aspirin and different doses of protein BD-6, lipopolysaccharide (20 µg/kg, 2 ml/kg) was injected intraperitoneally immediately, and the normal control group was injected intraperitoneally with an equal volume of normal saline. The body temperatures of the rats were monitored after 2 hours for a total of 8 hours.
According to the body temperature measured at each time point on the day of the experiment, calculate the mean, standard deviation and standard error of the body temperature of each group of rats. The data of each group was compared with TTEST, and P<0.05 was considered as a significant difference.

[2] = test system: phenol red excretion method in mice; assay: Expectorant test, phenol red excretion method in mice; type: in vivo, ICR mice; conditions: for Phenol red excretion: X±SEM, N=10
Method: • Animals: male ICR mice; • Drugs and reagents: Mucosolvan (ambroxol hydrochloride tablets), phenol red, sodium bicarbonate, protein BD-6; • Instruments: centrifuge (Sigma-3K15 type), balance (XS105DU type), Microplate tester (BIO-TEK type). • Experiment grouping: • Solvent control group; • Mucosolvan 30 mg/kg group; • Protein BD-6, 20 mg/kg group, 50 mg/kg group.
The animals were fasted and water was taken freely 16 hours before the experiment. Orally administered Mucosolvan and different doses of protein BD-6 (administration volume 10 ml/kg) in groups, and the solvent control group was given the same volume of distilled water. One hour later, 2.5% phenol red solution was injected intraperitoneally. Mice were sacrificed by neck dislocation after 30 minutes. Take a trachea from below the thyroid cartilage to the branch of the trachea, and put the trachea into 3 ml 5% NaHCO3 solution and let it stand for 3 hours. Take 1 ml of the supernatant and centrifuge at 3000 rpm for 5 minutes. Measure and record the absorbance at 546 nm. According to the standard curve of phenol red, the excretion of phenol red was calculated.
Record the time point of oral administration, the time point of intraperitoneal injection of 2.5% phenol red solution, and the time point of taking the trachea respectively; The absorbance of each group of samples was measured by the microplate reader at 546 nm, Calculate the excretion of phenol red according to the standard curve of phenol red. Calculate the mean and standard error of the data in each group, and use TTEST to compare the solvent control group with other groups, and P<0.05 is considered as a significant difference.

[3] = test system: mice cough induced by ammonia water; assay: Antitussive test, cough induced by ammonia water in mice; type: in vivo, ICR mice; conditions: for Incubation period (cough): 10% ammonia water 10 seconds; for Incubation period (cough) / Number of coughs: X±SEM; for Number of coughs: within 2 minutes
Method: • Animals: male ICR mice; • Drugs and reagents: dextromethorphan hydrobromide, ammonia water, 0.2% CMC-Na, protein BD-6; • Apparatus: Compressed nebulizer (403T type), balance (XS105DU type). • Experiment grouping: • Solvent control group; • Dextromethorphan 15 mg/kg group; • Protein BD-6, 20 mg/kg group, 50 mg/kg group.
Dextromethorphan and different doses of protein BD-6 (administration volume 10 ml/kg) were given orally in groups, and the solvent control group was given the same volume of distilled water. One hour later, mice were put into a sealed box and atomized 10% ammonia water for 10 seconds, and then observed and recorded the incubation period of cough in mice and the number of coughs in 2 minutes.
Record the time point of oral administration, the time point of atomization experiment, the incubation period of mice cough and the number of coughs within 2 minutes, respectively. The incubation period of cough refers to the number of seconds from the start of the atomization of ammonia to the occurrence of cough. The performance of coughing in mice is based on contraction of their abdominal muscles (breast contraction) and opening their mouths at the same time. Calculate the mean and standard error of each group of data, and use TTEST to compare the model group with other groups, and P<0.05 is considered as a significant difference.

[4] = BD-6 20 mg/kg and 50 mg/kg, P<0.05

B1: BD-6: recombinant keratin with the amino acid sequence SEQ ID NO:1, expressed in E. coli, about 45 kD; protein of Example 4 (protein, listed as Bos taurus)
chain: MTTTIRHFSSGSIKGSSGLAGGSSRSCRVSGSLGGGSCRLGSAGGLGSGLGGSSYSSCYSFGSGGSYGSGGYVSGGYGGGFGGVDGLLVGGEKATMQNLNDRLASYLDKVRALEEANTELELKIRDWYQKQAPGPAPDYSSYFKTIEDLRNKIHTATVDNANLLLQIDNARLAADDFRTKFETEQALRVSVEADINGLRRVLDELTLARADLEMQIENLKEELAYLRKNHEEEMKALRGQVGGEINVEMDAAPGVDLSRILNEMRDQYEKMAEKNRKDAEDWFFSKTEELNREVATNSELVQSGKSEISELRRTLQALEIELQSQLSMKASLEGSLAETENRYCMQLSQIQGLIGSVEEQLAQLRCEMEQQNQEYKILLDVKTRLEQEIATYRRLLEGEDAHLTQYKTKEPVTTRQVRTIVEEVQDGRVISSREQVHQTSH
[1]; BD-6 10 mg/kg oral
  Body temperature 2 hours after modeling: 37.1±0.2 °C
  Body temperature 4 hours after modeling: 37.4±0.2 °C
  Body temperature 6 hours after modeling: 37.3±0.2 °C
  Body temperature 8 hours after modeling: 37.2±0.2 °C
[1]; BD-6 50 mg/kg oral
  Body temperature 2 hours after modeling: 37.2±0.1 °C
  Body temperature 4 hours after modeling: 37.5±0.2 °C
  Body temperature 6 hours after modeling: 37.4±0.2 °C
  Body temperature 8 hours after modeling: 37.4±0.2 °C
[1]; BD-6 10 and 50 mg/kg, 2 hours after modeling, P<0.05 vs model group
  Effect on body temperature (in words): can reduce the body temperature of the model rats to different degrees
[2]; [4]
  Excretion of phenol red vs solvent control (in words): significantly increased the excretion of phenol red
[2]; BD-6 20 mg/kg oral
  Phenol red excretion: 0.789±0.115^∗ µg/ml
[2]; BD-6 50 mg/kg oral
  Phenol red excretion: 0.855±0.085^∗∗ µg/ml
[3]; [4]
  Number of coughs vs solvent control (in words): significant improvement in the number of coughs
[3]; BD-6 20 mg/kg oral
  Incubation period (cough): 33.3±3.3^∗ s
  Number of coughs: 45.9±4.8^∗
[3]; BD-6 20 mg/kg, P<0.05
  Cough incubation period vs solvent control (in words): significant improvement effect in the incubation period
[3]; BD-6 50 mg/kg oral
  Incubation period (cough): 30.6 ± 2.5 s
  Number of coughs: 49.8±3.8^∗
